Data set [1] addresses PU.1ΔN167 (ETS domain) (mouse (murine), UniProt P17433 167-272). Nature of the data set: competitive fluorescence anisotropy. On the technique in general: Polarisation of emitted light reports the rotation of a fluorescent probe.
The target in data set [2] is T1, Ets-1ΔN331 (minimal ETS domain) (mouse (murine)?, UniProt P27577 331-440).
T1 sequence: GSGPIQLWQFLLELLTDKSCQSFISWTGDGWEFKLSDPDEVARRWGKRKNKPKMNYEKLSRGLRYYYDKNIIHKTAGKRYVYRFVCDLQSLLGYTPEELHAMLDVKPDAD
The data set can be described thus: competitive fluorescence anisotropy.

B1: SC1 hemi-methylated, forward (5'-GGAA-3' strand) (dsDNA)
DNA 1: CGGCCAAGCCGGAAGTGAGTGCC
DNA 2: GGCACTCACTTCCGGCTTGGCCG
modifications: 5-methyl-dC at strand 1 position 10 (CpG)
Regarding B1, the dissociation constant Kd (in general, a measure of binding affinity in units of concentration) in data set [1] turned out to be 1.5 ± 0.9 nM.

B2: SC1 unmethylated (dsDNA)
DNA 1: CGGCCAAGCCGGAAGTGAGTGCC
DNA 2: GGCACTCACTTCCGGCTTGGCCG
Turning to B2, the equilibrium dissociation constant (Kd) in data set [1] worked out at 0.32 ± 0.17 nM; in data set [2] it was 0.14 ± 0.03 nM.

Source of the values: article PMC5062964.
